Measurements published in patent US20240254227A1 (Alector, published 2024).
Where a chain is given by its changes, count along the chain named.

B1: anti-CD300LB antibody CD-10 (antibody, V domains shown)
VH: QVQLQQSGPELVRPGVSVKISCKGSGYTFTDYAMHWVKQSHVRSREWIGVIGTYNGHTNYNQKFKGKATMTVDKSSSTAYLELARLTSEDSAIYYCARSGSYYYSMDYWGQGTSVTVSS
VL: QIVLTQSPAIMSASPGEKVTMTCSASSSVNYMHWYQQKSGTSPKRWIYDTSKLSSGVPARFSGSGSGTSYSLTISTMEAEDAATYYCQQWSSNPPMTFGGGTKLEIK
B2: anti-CD300LB antibody CD-11 (antibody, V domains shown)
VH: QIQLVQSGPEVKKPGETVKISCKASGYTLTDYSMHWVMQTPGTGLKWMAWMNTETGEPTYADDFKGRFAFSLETSAGTAYLQIDNLKNEDTATYFCATYGKSYGMKYWGQGTSVTVSS
VL: DIVLTQSPPSLAVSLGQRATISCRATKSVSPYLHWYQQTPGQPPKLLIYLASNLDSGVPARFSGSGSGTDFTLNIHPVEEEDAATYYCQHNKELPPTFGGGTRLEIK
B3: anti-CD300LB antibody CD-12 (antibody, V domains shown)
VH: QIQLVQSGPELKKPGETVKISCKASGYTFTDYSMHWVRQAPGKGLKWMAWINTETGEATHADDFKGRFDFSLDTSASTAYLQIKNLKNEDTGIYFCVCYGSSYGMDYWGQGTSVTVSS
VL: DIVLTQSPASLPVSLGQRATISCRASKSVRTSGASYMHWYQQKPGQPPKLLIYLASNLKSGVPTRFSGSGSGTDFTLNIHPVEEEDAATYYCQHNREVPPTFGGGTKLEIK
B4: anti-CD300LB antibody CD-15 (antibody, V domains shown)
VH: QIQLVQSGPELKKPGETVKISCQVSGYTFTDYSMHWLKQAPGKGLKWMAWINTETGESTYTDEFKGRFVFSLETSVRTAYLKINNLKNEDTATYFCGTYGSSYGMAYWGQGTSVTVSS
VL: B3 VL with R30S, A34S, M37L, N57K, K59E, T64A, S67R
B5: anti-CD300LB antibody CD-16 (antibody, V domains shown)
VH: QIQLVQSGPELKKPGETVKISCKASGYTFTDYSMHWVKQAPGKGLKWMAWINTETGEPTYADDFRGRFAFSLETSGRTAYLEINNLRNEDTATYFCVTYGSSYGMAYWGQGTSVTVSS
VL: B3 VL with P12A, R30S, T31R, A34Y, M37L, N57K, K59E, T64A, E84A, V98I
B6: anti-CD300LB antibody CD-13 (antibody, V domains shown)
VH: QIQLVQSGPELKKPGETVKISCKASGYTFTDYSMHWVKQAPGKGFKWMAWINTETGAPTHADDFRGRFAFSLETSASTAFLQISNLKTEDTATYFCVTFGKSYGMNYWGQGTSVTVSS
VL: B3 VL with P12S, R30G, T31S, A34S, M37L, K59E, T64A, D74E, R96A
B7: anti-CD300LB antibody CD-14 (antibody, V domains shown)
VH: QIQLVQSGPELKKPGETVKISCKASGYTFTDYSLHWVKQTPEKNLKWMAWINTETGAPTYADDFKGRFAFSLETSSNTAYLLINNLKNEDTATYFCALTMVNYWGQGTTLTVSS
VL: DIVMTQSQKFMSTSVGDRVSVTCKASQNVGIRVAWHQQKPGQSPKTLIYSTSYRYSGVPDRFTGSGSGTEFILTISNVQSEDLAEYFCQQYNSYPYTFGGGTKLEIK
B8: anti-CD300LB antibody CD-01 (antibody, V domains shown)
VH: RVQLQQSGAELVRPGASVTLSCKASGFTFTDFEMHWVKKTPVHGLEWIGAIDPESGNTAYNQKFRGKATLTADKSSSTAYMELRYLTSEDSAVYYCTPLISGADYWGQGTTLTVSS
VL: DVVMTQSPLSLPVSLGDQASISCRSSQSLVHSDGNTYLYWYLQKPGQSPKLLIYKVSNRFSGVPDRFSGSGSGTDFTFKISRVGAEDLGVYFCSQSTHVPWTFGGGTKLEII
B9: anti-CD300LB antibody CD-05 (antibody, V domains shown)
VH: QVQLVQSGAEVKKPGASVKVSCKASGYTFSRYYINWVRQAPGQGLEWMGWINPNSGGTNYAQKFQGRVTMTRDTSTSTVYMELSSLRSEDTAVYYCTTDQLRFGKTGPYYGMDVWGQGTTVTVSS
VL: DIQMTQSPSSLSASVGDRVTITCRASQNIGTYLNWYQQKPGKAPKLLIYAASSLQSGVPSRFSGSGSGTDFTLTISSLQPEDFATYYCQQSYSDTLTFGGGTKVEIK
B10: anti-CD300LB antibody CD-06 (antibody, V domains shown)
VH: QVQLVQSGAEVKKPGASVKVSCKASGYTFTTYAVHWVRQAPGQGLEWMGIVNPNSGGTNYAQKFQGRVTMTRDTSTSTVYMELSSLRSEDTAVYYCARDIVPMNNFYNYYYGMDVWGQGTTVTVSS
VL: B9 VL with N28S, G30S, T31S, A51T, S53T, S93R, D94I, T95P, L96Y, G100Q
B11: anti-CD300LB antibody CD-02 (antibody, V domains shown)
VH: QVQLQQPGAELVRPGSSVKLSCQASGYTFTNYWMHWVRQRPIQGLEWIGNIDPSDSETHYNQKFKDRATLTVDKSSSTAYMQLSSLTSEDSAVYYCARSGVYDDEGGDYWGQGTTLTVSS
VL: ENVLTQSPAIMSASPGEKVTMTCSASSSVSYIHWYQQKSSTSPKLWIYDTSKLASGVPGRFSGSGSGNSYSLTISSMETEDVATYYCFQGSGYPLTFGAGTKLELK

biological target: T1, murine CD300A-Fc (mouse); test: SPR (Carterra LSA), antibody immobilised, Fc fusion at 300 or 600 nM
T1 construct: hIgG1-Fc fusion; the entry is the whole fusion chain; also called mCD300A; Mouse CD300A-Fc
Method: (§1) Binding of mouse anti-CD300LB IgG1 antibodies of the present disclosure to human and murine CD300 orthologs were evaluated by surface plasmon resonance (SPR) using a Carterra LSA instrument (Carterra, Salt Lake City, UT). […] A HC200M sensor chip (Carterra) was activated using the single channel flow cell with a 7-minute injection of a 1:1:1 mixture of 100 mM MES pH 5.5, 100 mM sulfo-NHS, 400 mM EDC (all reconstituted in MES pH 5.5; 100 μL of each mixed in vial immediately before running assay). After switching to the multi-channel array flow cell, the antibodies were injected over the activated chip in a 96-spot array for 10 minutes. The remaining unconjugated active groups on the chip were then blocked by injecting 1M Ethanolamine pH 8.5 (Carterra) for 7 minutes using the single channel flow cell. After priming with running buffer (HBS-TE, Carterra) with 0.5 mg/ml BSA (Sigma), the immobilized anti-CD300LB antibodies were tested for their ability to bind human and mouse recombinant CD300LB extracellular domains. Human CD300 family members and mouse CD300A were hIgG1-Fc fusions, while mouse CD300LB, mouse CD300C, mouse CD300D, and mouse CD300E were mouse IgG2a-Fc fusions (R&D Systems). Binding was assessed by injecting each analyte over the entire antibody array using the single channel flow cell. CD300 analytes were diluted to 300 nM or 600 nM in running buffer and injected in series without regeneration. Two or three buffer blanks were run between each mouse or human ortholog, respectively. Data were processed and analyzed using NextGenKIT high-throughput kinetics analysis software (Carterra).
(§2) Results of anti-CD300LB antibody binding to murine CD300 family members is provided below in Table 8.

T1 sequence (chain, as listed by the source limits assumed): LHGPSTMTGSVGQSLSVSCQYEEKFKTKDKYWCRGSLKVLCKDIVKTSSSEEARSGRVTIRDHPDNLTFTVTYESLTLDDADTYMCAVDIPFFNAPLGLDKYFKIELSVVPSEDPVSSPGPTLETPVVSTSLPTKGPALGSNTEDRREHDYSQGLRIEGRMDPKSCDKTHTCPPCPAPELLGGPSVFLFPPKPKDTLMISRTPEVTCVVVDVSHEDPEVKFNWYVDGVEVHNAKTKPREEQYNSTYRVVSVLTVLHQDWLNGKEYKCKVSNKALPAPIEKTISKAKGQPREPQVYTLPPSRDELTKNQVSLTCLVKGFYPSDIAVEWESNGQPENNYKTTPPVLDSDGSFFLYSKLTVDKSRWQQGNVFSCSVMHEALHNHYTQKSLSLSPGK

Binder	SPR binding (control subtracted)
B1	-2.5
B2	-2.1
B3	4.2
B4	7.1
B5	-1.9
B6	4.4
B7	2.7

Biological target: T2, murine CD300E-Fc (mouse)
T2 construct: mouse IgG2a-Fc fusion (R&D Systems); the entry is the whole fusion chain; also called mCD300E; Mouse CD300E-Fc
T2 chain: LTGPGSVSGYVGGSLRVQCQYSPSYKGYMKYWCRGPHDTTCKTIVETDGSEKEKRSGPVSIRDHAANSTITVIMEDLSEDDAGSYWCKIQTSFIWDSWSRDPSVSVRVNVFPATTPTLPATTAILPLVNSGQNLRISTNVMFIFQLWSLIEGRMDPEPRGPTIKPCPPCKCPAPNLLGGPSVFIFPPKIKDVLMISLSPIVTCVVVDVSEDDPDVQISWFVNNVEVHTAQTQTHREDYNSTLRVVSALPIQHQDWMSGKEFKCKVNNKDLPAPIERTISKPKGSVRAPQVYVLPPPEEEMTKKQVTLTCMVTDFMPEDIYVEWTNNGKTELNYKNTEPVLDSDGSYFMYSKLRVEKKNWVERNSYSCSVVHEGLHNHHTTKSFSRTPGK
Test: as above
Method: as §1, §2

Binder	SPR binding (control subtracted)
B1	11.3
B2	7.4
B3	-0.6
B4	0.8
B5	8.6
B6	4.5
B7	3.6

Biological target: T3, murine CD300C-Fc (mouse)
T3 construct: mouse IgG2a-Fc fusion (R&D Systems); the entry is the whole fusion chain; also called mCD300C; Mouse CD300C-Fc
T3 chain: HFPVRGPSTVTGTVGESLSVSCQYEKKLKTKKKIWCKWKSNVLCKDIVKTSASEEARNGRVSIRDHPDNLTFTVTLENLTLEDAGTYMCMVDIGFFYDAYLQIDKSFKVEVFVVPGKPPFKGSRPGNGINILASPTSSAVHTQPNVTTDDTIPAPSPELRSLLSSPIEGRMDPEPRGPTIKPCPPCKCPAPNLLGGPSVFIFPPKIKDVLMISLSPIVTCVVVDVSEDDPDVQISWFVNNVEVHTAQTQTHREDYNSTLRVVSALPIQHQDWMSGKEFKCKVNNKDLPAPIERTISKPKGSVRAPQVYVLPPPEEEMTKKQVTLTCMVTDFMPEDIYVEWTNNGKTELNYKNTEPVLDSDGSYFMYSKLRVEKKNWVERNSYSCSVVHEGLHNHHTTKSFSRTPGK
Test: as above
Method: as §1, §2

Binder	SPR binding (control subtracted)
B3	2.5
B4	13.3
B5	34.5
B6	43.6
B7	17.9

biological target: T4, murine CD300LB stably expressed on Jurkat cells (mouse, UniProt Q3U497 18-209); test: flow cytometry, stable Jurkat cells, supernatant or 10 ug/mL, isotype subtracted
T4 construct: also called muCD300LB; mouse CD300LB
T4 sequence: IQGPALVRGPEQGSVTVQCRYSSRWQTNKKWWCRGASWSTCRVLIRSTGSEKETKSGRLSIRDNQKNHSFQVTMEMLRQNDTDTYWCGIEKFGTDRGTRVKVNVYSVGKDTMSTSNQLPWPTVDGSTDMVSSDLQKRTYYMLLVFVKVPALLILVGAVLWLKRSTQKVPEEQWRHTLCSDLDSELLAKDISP
Method: (§3) Purified anti-CD300LB antibodies of the present disclosure were also evaluated for species cross-reactivity to mouse and human CD300LB stably expressed in Jurkat cells (generation of which is described above). Cells were counted and labeled with 200 nM CFSE, 500 nM VioBlue, or a combination of the two to discriminate between human CD300LB, Parental cells and mouse CD300LB. Cells were washed thoroughly with PBS containing 2% fetal bovine serum then resuspended at a total of 240,000 cells per well. Hybridoma supernatants (100 L) or purified antibodies at 10 μg/mL were added and incubated for one hour before the cells were washed again and stained with an APC-labeled anti-human or anti-mouse secondary. Cells were then analyzed using a BD FACSCanto II. Antibodies were analyzed for binding to mouse or human CD300LB by FlowJo software by gating on live cells, then the APC gMFI calculated for each labeled population by subtraction of the gMFI of the appropriate isotype control.

Binder	gMFI [gMFI]
B1	284
B2	320
B4	506
B5	504
B6	1190
B8	860
B9	172
B10	-48.7
B7	950
B11	23

biological target: T5, recombinant human CD300LB overexpressed on Jurkat cells (human, UniProt A8K4G0 18-201); test: as above
T5 construct: also called huCD300LB; huCD300LB-expressing Jurkat cells
T5 sequence: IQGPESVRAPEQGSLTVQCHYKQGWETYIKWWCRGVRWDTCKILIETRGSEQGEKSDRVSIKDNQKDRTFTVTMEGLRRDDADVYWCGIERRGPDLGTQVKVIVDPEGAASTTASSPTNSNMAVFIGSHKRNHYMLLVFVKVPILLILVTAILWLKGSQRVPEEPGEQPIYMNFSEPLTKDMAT
Method: as §3

Binder	gMFI [gMFI]
B1	18
B2	50
B6	324
B8	309
B9	1810
B10	3180
B7	59
B11	1130
